In US11248019B2, “Trityl-mono-GalNAc compounds and their use” (Hoffmann-La Roche Inc., priority 2016, dated 2022):

Key:
Assay type in all cases: in vivo, C57BL6/J mice
ApoB mRNA [1] = test: ApoB mRNA knockdown in liver and kidney by qPCR, single sc dose, sacrifice day 10 (Example 4); details: for ApoB mRNA expression as % of saline, mRNA kidney: day 10, kidney; for ApoB mRNA expression as % of saline, mRNA liver: day 10, liver
Experimental: (§1) Female C57BL6/J mice (5/group appr. 20 g at arrival) were injected subcutaneous (sc) with a single dose saline or 0.25 mg/kg unconjugated LNA-antisense oligonucleotide (compound F) or with 0.25 mg/kg or 0.1 mg/kg of GalNAc conjugated LNA antisense oligonucleotide (Compound C or E of the invention or reference compound G). Blood samples of 50 μl were collected pre-dosing at day minus 6, and post dosing at day 3 and 7. The animals were sacrificed at day 10 and total serum was collected as well as liver and kidney.
(§2) ApoB mRNA knockdown was analyzed by qPCR. In brief, RNA was isolated from homogenized liver and kidney using MagnaPure RNA Isolation and purification system (catalog #03604721001 and #05467535001; Roche) according to the manufacturer's instructions. RT-QPCR was done using Taqman Fast Universal PCR Master Mix 2×(Applied Biosystems Cat #4364103) and Taqman gene expression assay (mApoB, Mn01545150_m1 and mGAPDH #4352339E) following the manufacturers protocol.

[2] = Oligonucleotide content in liver and kidney by ELISA (Example 4); details: for Oligonucleotide content, Kidney / Oligonucleotide content, Liver: day 10
Experimental: as §1
The oligonucleotide content in the liver and kidney was measured using ELISA (see for example Straarup et al 2010 Nucleic Acid Res Vol 38 pp 7100-7111), results are shown in Table 6.

ApoB mRNA [3] = test: ApoB mRNA knockdown in liver and kidney by qPCR, single iv dose 0.1 mg/kg, day 7 or 14 (Example 7); details: 0.1 mg/kg single iv dose
Experimental: as §2
(§3) Female C57BL6/J mice (5/group appr. 20 g at arrival) were injected intravenous (iv) with a single dose saline or 0.1 mg/kg of GalNAc conjugated LNA antisense oligonucleotide (Compound J, K, L, B or C of the invention or reference compound M). Blood samples of 50 μl were collected pre-dosing at day minus 6, and post dosing at day 3, 7, 10 and 14. The animals were sacrificed at day 7 or 14 and total serum was collected as well as liver and kidney.
ApoB mRNA knock down was measured as described in example 4.

[4] = Oligonucleotide content in liver and kidney by ELISA (Example 7); details: 0.1 mg/kg single iv dose
Experimental: as §3
The oligonucleotide content in the liver and kidney was measured using ELISA (see for example Straarup et al 2010 Nucleic Acid Res Vol 38 pp 7100-7111), results are shown in Table 16.

ALT in serum (Example 7) = details: 0.1 mg/kg single iv dose
Experimental: as §3
ALT (Alanine aminotransferase) was measured using ABX Pentra ALT CP reagent (A11A01627 Triolab, Brondby, Denmark. The results are shown in table 17.

ApoB mRNA [5] = test: ApoB mRNA knockdown in liver and kidney by qPCR, single iv dose, sacrifice day 3 (Example 6)
Experimental: as §2
(§4) Female C57BL6/J mice (5/group appr. 20 g at arrival) were injected intravenous (iv) with a single dose saline, 0.22 mg/kg, 0.45 mg/kg or 0.89 mg/kg, of GalNAc conjugated LNA antisense oligonucleotide (Compound H, I or J of the invention) or the naked reference compound F. Blood samples of 50 μl were collected pre-dosing at day minus 6. The animals were sacrificed at day 3. Total serum was collected as well as liver and kidney.

[6] = Oligonucleotide content in liver and kidney by ELISA (Example 6); details: for Oligonucleotide content in kidney tissue / Oligonucleotide content in liver tissue: day 3
Experimental: as §4
The oligonucleotide content in the liver and kidney was measured using ELISA (see for example Straarup et al 2010 Nucleic Acid Res Vol 38 pp 7100-7111), results are shown in Table 11A and 11B.

[7] = test system: total cholesterol in serum; test: Total cholesterol in serum (Example 6); details: day 3
Experimental: as §4
Total cholesterol in serum was measured using ABX Pentra Cholesterol CP (Triolab, Brondby, Denmark) according to the manufacturer's instructions.

ALT in serum (Example 6) = test: ALT in serum (Example 6)
Experimental: as §4
ALT (Alanine aminotransferase) was measured using ABX Pentra ALT CP reagent (A11A01627 Triolab, Brondby, Denmark. The results are shown in Table 13.

5′-cOaOGS^mCSaStStSgSgStSaStSTS^mCSA-3′ [Compound C]
ApoB mRNA expression as % of saline, mRNA kidney (ApoB mRNA [1]; 0.1 mg/kg single sc dose): 72.4 % of saline | ApoB mRNA expression as % of saline, mRNA liver (ApoB mRNA [1]; 0.1 mg/kg single sc dose): 69.6 % of saline | ApoB mRNA expression as % of saline, mRNA kidney (ApoB mRNA [1]; 0.25 mg/kg single sc dose): 56.1 % of saline | ApoB mRNA expression as % of saline, mRNA liver (ApoB mRNA [1]; 0.25 mg/kg single sc dose): 24.0 % of saline | knock down of ApoB mRNA compared to the GalNAc2 cluster conjugated LNA oligonucleotide (compound G) (ApoB mRNA [1]; in words, high dose (0.25 mg/kg)): better knockdown | knock down of ApoB mRNA in the liver compared to unconjugated (naked) oligonucleotide (compound F) (ApoB mRNA [1]; in words, single sc dose, day 10): improved knock down | Oligonucleotide content, Kidney ([2]; 0.1 mg/kg single sc dose): 0.080 μg/g tissue | Oligonucleotide content, Liver ([2]; 0.1 mg/kg single sc dose): 0.028 μg/g tissue | Oligonucleotide content, Kidney ([2]; 0.25 mg/kg single sc dose): 0.080 μg/g tissue | Oligonucleotide content, Liver ([2]; 0.25 mg/kg single sc dose): 0.028 μg/g tissue | uptake in liver and kidney compared to the unconjugated oligonucleotide (compound F) ([2]; in words): enhanced uptake in the liver and reduced uptake in the kidney | liver/kidney distribution ratio compared to GalNAc2 conjugated LNA oligonucleotide (compound G) ([2]; in words, high dose): improved liver/kidney distribution ratio | ApoB mRNA/mGAPDH expression as % of saline, Avg kidney (ApoB mRNA [3]; Day 7, kidney): 93.8 % of saline | ApoB mRNA/mGAPDH expression as % of saline, Avg liver (ApoB mRNA [3]; Day 7, liver): 63.2 % of saline | ApoB mRNA/mGAPDH expression as % of saline, Avg kidney (ApoB mRNA [3]; Day 14, kidney): 74.4 % of saline | ApoB mRNA/mGAPDH expression as % of saline, Avg liver (ApoB mRNA [3]; Day 14, liver): 116.3 % of saline | Oligonucleotide content, Avg kidney ([4]; Day 7, kidney tissue): 0.307 µg/g | Oligonucleotide content, Avg liver ([4]; Day 7, liver tissue): 0.493 µg/g | Oligonucleotide content, Avg kidney ([4]; Day 14, kidney tissue): 0.118 µg/g | Oligonucleotide content, Avg liver ([4]; Day 14, liver tissue): 0.209 µg/g | ALT levels (U/L) in serum as % of saline (ALT in serum (Example 7); Day 7): 136.7 % of saline | ALT levels (U/L) in serum as % of saline (ALT in serum (Example 7); Day 14): 111.3 % of saline

5′-cOaOGS^mCSaStStSgSgStSaStSTS^mCSA-3′ [K]
ApoB mRNA/mGAPDH expression as % of saline, Avg kidney (ApoB mRNA [3]; Day 7, kidney): 80.2 % of saline | ApoB mRNA/mGAPDH expression as % of saline, Avg liver (ApoB mRNA [3]; Day 7, liver): 48.7 % of saline | ApoB mRNA/mGAPDH expression as % of saline, Avg kidney (ApoB mRNA [3]; Day 14, kidney): 86.2 % of saline | ApoB mRNA/mGAPDH expression as % of saline, Avg liver (ApoB mRNA [3]; Day 14, liver): 112.4 % of saline | Oligonucleotide content, Avg kidney ([4]; Day 7, kidney tissue): 0.275 µg/g | Oligonucleotide content, Avg liver ([4]; Day 7, liver tissue): 0.401 µg/g | Oligonucleotide content, Avg kidney ([4]; Day 14, kidney tissue): 0.129 µg/g | Oligonucleotide content, Avg liver ([4]; Day 14, liver tissue): 0.173 µg/g | ALT levels (U/L) in serum as % of saline (ALT in serum (Example 7); Day 7): 170.3 % of saline | ALT levels (U/L) in serum as % of saline (ALT in serum (Example 7); Day 14): 77.3 % of saline

5′-GS^mCSaStStSgSgStSaStSTS^mCSA-3′ [Compound J]
ApoB mRNA expression as % of saline in kidney (ApoB mRNA [5]; 0.22 mg/kg single iv dose): 117.0 % of saline | ApoB mRNA/mGAPDH expression as % of saline in liver (ApoB mRNA [5]; 0.22 mg/kg single iv dose): 12.8 % of saline | ApoB mRNA expression as % of saline in kidney (ApoB mRNA [5]; 0.45 mg/kg single iv dose): 90.7 % of saline | ApoB mRNA/mGAPDH expression as % of saline in liver (ApoB mRNA [5]; 0.45 mg/kg single iv dose): 6.3 % of saline | ApoB mRNA expression as % of saline in kidney (ApoB mRNA [5]; 0.89 mg/kg single iv dose): 64.1 % of saline | ApoB mRNA/mGAPDH expression as % of saline in liver (ApoB mRNA [5]; 0.89 mg/kg single iv dose): 3.0 % of saline | ApoB knock down in the liver (ApoB mRNA [5]; in words, single iv dose): improved ApoB knock down in the liver | Oligonucleotide content in kidney tissue ([6]; 0.22 mg/kg single iv dose): 0.169 µg/g | Oligonucleotide content in liver tissue ([6]; 0.22 mg/kg single iv dose): 0.313 µg/g | Oligonucleotide content in kidney tissue ([6]; 0.45 mg/kg single iv dose): 0.549 µg/g | Oligonucleotide content in liver tissue ([6]; 0.45 mg/kg single iv dose): 0.710 µg/g | Oligonucleotide content in kidney tissue ([6]; 0.89 mg/kg single iv dose): 1.040 µg/g | Oligonucleotide content in liver tissue ([6]; 0.89 mg/kg single iv dose): 1.478 µg/g | liver to kidney ratio compared to unconjugated (naked) oligonucleotide (compound F) ([6]; in words, tables 9 to 11): improved liver to kidney ratio | serum cholesterol percent of saline ([7]; 0.22 mg/kg single iv dose): 37.3% of saline | serum cholesterol percent of saline ([7]; 0.45 mg/kg single iv dose): 21.5% of saline | serum cholesterol percent of saline ([7]; 0.89 mg/kg single iv dose): 10.0% of saline | serum cholesterol reduction ([7]; in words, single iv dose): serum cholesterol reduction | ALT levels (U/L) in serum at day 3 as % of saline (ALT in serum (Example 6); 0.22 mg/kg single iv dose): 101 % of saline | ALT levels (U/L) in serum at day 3 as % of saline (ALT in serum (Example 6); 0.45 mg/kg single iv dose): 201 % of saline | ALT levels (U/L) in serum at day 3 as % of saline (ALT in serum (Example 6); 0.89 mg/kg single iv dose): 1558 % of saline | ALT levels (ALT in serum (Example 6); in words, highest dose (0.89 mg/kg)): some animals showed increase ALT levels | ApoB mRNA/mGAPDH expression as % of saline, Avg kidney (ApoB mRNA [3]; Day 7, kidney): 83.9 % of saline | ApoB mRNA/mGAPDH expression as % of saline, Avg liver (ApoB mRNA [3]; Day 7, liver): 56.0 % of saline | ApoB mRNA/mGAPDH expression as % of saline, Avg kidney (ApoB mRNA [3]; Day 14, kidney): 96.8 % of saline | ApoB mRNA/mGAPDH expression as % of saline, Avg liver (ApoB mRNA [3]; Day 14, liver): 107.6 % of saline | Oligonucleotide content, Avg kidney ([4]; Day 7, kidney tissue): 0.153 µg/g | Oligonucleotide content, Avg liver ([4]; Day 7, liver tissue): 0.276 µg/g | Oligonucleotide content, Avg kidney ([4]; Day 14, kidney tissue): 0.079 µg/g | Oligonucleotide content, Avg liver ([4]; Day 14, liver tissue): 0.163 µg/g | ALT levels (U/L) in serum as % of saline (ALT in serum (Example 7); Day 7): 128.6 % of saline | ALT levels (U/L) in serum as % of saline (ALT in serum (Example 7); Day 14): 126.1 % of saline
